We go through one variant from publication PMC5974087, “The RPAP3-Cterminal domain identifies R2TP-like quaternary chaperones” (Nature Communications, 2018).

Sequences and labels used below:
B1: GFP-RPAP3-Cter [human] / SHQ1 [human (endogenous in HeLa)] (parent)
chain 1: AQFATTVLPPIPANSFQLESDFRQLKSSPDMLYQYLKQIEPSLYPKLFQKNLDPDVFNQIVKILHDFYIEKEKPLLIFEILQRLSELKRFDMAVMFMSETEKKIARALFNHIDKSGLKDSSVEELKKRYGG
chain 2: MLTPAFDLSQDPDFLTIAIRVPYARVSEFDVYFEGSDFKFYAKPYFLRLTLPGRIVENGSEQGSYDADKGIFTIRLPKETPGQHFEGLNMLTALLAPRKSRTAKPLVEEIGASEIPEEVVDDEEFDWEIEQTPCEEVSESALNPQCHYGFGNLRSGVLQRLQDELSDVIDIKDPDFTPAAERRQKRLAAELAKFDPDHYLADFFEDEAIEQILKYNPWWTDKYSKMMAFLEKSQEQENHATLVSFSEEEKYQLRKFVNKSYLLDKRACRQVCYSLIDILLAYCYETRVTEGEKNVESAWNIRKLSPTLCWFETWTNVHDIMVSFGRRVLCYPLYRHFKLVMKAYRDTIKILQLGKSAVLKCLLDIHKIFQENDPAYILNDLYISDYCVWIQKVKSKKLAALAEALKEVSLTKAQLGLELEELEAAALLVQEEETALKAAHSVSGQQTLCSSSEASDSEDSDSSVSSGNEDSGSDSEQDELKDSPSETVSSLQGPFLEESSAFLIVDGGVRRNTAIQESDASQGKPLASSWPLGVSGPLIEELGEQLKTTVQVSEPKGTTAVNRSNIQERDGCQTPNN

Variants of B1 are the subject of the experiment. The experiment can be described thus: SILAC quantitative proteomics of GFP IP. The conditions noted are these: with SHQ1 [human (endogenous in HeLa)]; read off a plot.
As for chain 1 AQFATTVLPPIPANSFQLESDFRQLKSSPDMLYQYLKQIEPSLYPKLFQKNLDPDVFNQIVKILHDFYIEKEKPLLIFEILQRLSELKAFDAAVMFMSETEKKIARALFNHIDKSGLKDSSVEELKKRYGG [chain 1 R89A M92A], the enrichment (Log2 SILAC ratio) is 1.5.
